Patent US20030162228A1
Where no end group is shown, it is not given here.

Target: T1, TAK1 expressed from yeast 2-hybrid expression vector pBTMHu11F (Homo sapiens (Human)) (UniProt O43318)
T1 sequence: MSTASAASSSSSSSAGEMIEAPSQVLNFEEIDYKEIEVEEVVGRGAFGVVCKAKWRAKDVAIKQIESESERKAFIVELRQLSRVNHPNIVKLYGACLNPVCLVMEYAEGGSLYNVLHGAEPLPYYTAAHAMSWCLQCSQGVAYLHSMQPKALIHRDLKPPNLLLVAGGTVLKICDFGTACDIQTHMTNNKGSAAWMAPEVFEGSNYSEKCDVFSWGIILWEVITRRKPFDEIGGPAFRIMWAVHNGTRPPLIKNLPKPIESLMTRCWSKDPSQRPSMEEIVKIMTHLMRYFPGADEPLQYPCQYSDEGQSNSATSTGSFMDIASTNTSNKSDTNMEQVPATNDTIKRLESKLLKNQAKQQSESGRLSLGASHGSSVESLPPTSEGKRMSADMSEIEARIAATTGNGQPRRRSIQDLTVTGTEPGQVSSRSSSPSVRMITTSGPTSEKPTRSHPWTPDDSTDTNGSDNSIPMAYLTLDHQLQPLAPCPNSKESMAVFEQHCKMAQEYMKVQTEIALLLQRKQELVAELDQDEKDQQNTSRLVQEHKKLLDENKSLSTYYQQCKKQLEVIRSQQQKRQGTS
Assay: cell-based or functional assay

Binder: VDFAEFYRLWSVDHGEQSVVTAP (peptide, not shown: large carriers, also: fusion with GAL4 transcription activation domain) [TAB1C23, fusion with the GAL4 transcription activated domain (pGAD-TAB1C23)]
- β-galactosidase activity of yeast L40 (yeast 2-hybrid), ratio based on TAB1C68 (ratio to TAB1C68): 0.05

Binder: FAEFYRLWSVDHGEQSVVTAP (peptide, not shown: large carriers, also: fusion with GAL4 transcription activation domain) [TAB1C21, fusion with the GAL4 transcription activated domain (pGAD-TAB1C21)]
- β-galactosidase activity of yeast L40 (yeast 2-hybrid), ratio based on TAB1C68 (ratio to TAB1C68): 0.03

Binder: DFAEFYRLWSVDHGEQSVVTAP (peptide, not shown: large carriers, also: fusion with GAL4 transcription activation domain) [TAB1C22, fusion with the GAL4 transcription activated domain (pGAD-TAB1C22)]
- β-galactosidase activity of yeast L40 (yeast 2-hybrid), ratio based on TAB1C68 (ratio to TAB1C68): 0.03

Binder: YVDFAEFYRLWSVDHGEQSVVTAP (peptide, not shown: large carriers, also: fusion with GAL4 transcription activation domain) [TAB1C24, fusion with the GAL4 transcription activated domain (pGAD-TAB1C24)]
- β-galactosidase activity of yeast L40 (yeast 2-hybrid), ratio based on TAB1C68 (ratio to TAB1C68): 0.35

Binder: AEFYRLWSVDHGEQSVVTAP (peptide, not shown: large carriers, also: fusion with GAL4 transcription activation domain) [TAB1C20, fusion with the GAL4 transcription activated domain (pGAD-TAB1C20)]
- β-galactosidase activity of yeast L40 (yeast 2-hybrid), ratio based on TAB1C68 (ratio to TAB1C68): 0.03
